Results as given in PMC3010076 (The Journal of Cell Biology, 2010).

B1: C-terminally TAP-tagged Myo1 with a deletion of the TD2 region (natural protein, S. cerevisiae, UniProt P08964 1-1928, looked up)
chain: MTGGQSCSSNMIVWIPDEKEVFVKGELMSTDINKNKFTGQEEQIGIVHPLDSTEVSNLVQVRISDVFPVNPSTFDKVENMSELTHLNEPSVLYNLEKRYDCDLIYTYSGLFLVAINPYHNLNLYSEDHINLYHNKHNRLSKSRLDENSHEKLPPHIFAIAEEAYENLLSEGKDQSILVTGESGAGKTENTKKILQYLASITSGSPSNIAPVSGSSIVESFEMKILQSNPILESFGNAQTVRNNNSSRFGKFIKIEFNEHGMINGAHIEWYLLEKSRIVHQNSKERNYHIFYQLLSGLDDSELKNLRLKSRNVKDYKILSNSNQDIIPGINDVENFKELLSALNIIGFSKDQIRWIFQVVAIILLIGNIEFVSDRAEQASFKNDVSAICSNLGVDEKDFQTAILRPRSKAGKEWVSQSKNSQQAKFILNALSRNLYERLFGYIVDMINKNLDHGSATLNYIGLLDIAGFEIFENNSFEQLCINYTNEKLQQFFNNHMFVLEQSEYLKENIQWDYIDYGKDLQLTIDLIESKGPPTGVLPLLDEEAVLPKSTDESFYSKLISTWDQNSSKFKRSRLKNGFILKHYAGDVEYTVEGWLSKNKDPLNDNLLSLLSSSQNDIISKLFQPEGEKSSSAGVEANISNQEVKKSARTSTFKTTSSRHREQQITLLNQLASTHPHFVRCIIPNNVKKVKTFNRRLILDQLRCNGVLEGIRLAREGYPNRIAFQEFFQRYRILYPENSTTTTFSSKLKASTKQNCEFLLTSLQLDTKVYKIGNTKLFFKAGVLADLEKQKDVKLNNIMIKLTATIRGYTVRKEITYHLQKLKKTRVIGNTFRLYNRLVKEDPWFNLFIRIKPLLTSSNDMTRTKKFNEQINKLKNDLQEMESKKKFLEEKNQKTVNELENTQDLLNQEKENLRKNESLLNRVKTSSETLQKQFDDLVSEKDEISREKLEVAQNLEEAHQKIQGLQETIREREATLEKLHSKNNELIKQISDLNCDISKEQSSQSLIKESKLKLENEIKRLKDVINSKEEEIKSFNDKLSSSEEDLDIKLVTLEKNCNIAMSRLQSLVTENSDLRSKNENFKKEKAALNNQLKNKESELLKMKEKIDNHKKELATFSKQRDDAVSEHGKITAELKETRIQLTEYKSNYQKIKEEYSNFQRETKEQEQKKRNSLVESLNDSKIKELEARLSQEISLNQYLNKRISGNSVETNISSTRRSTSYSDDVGDIIKNRDSISKYEEEIRYYKLENYKLQEILNESNGKLSQLTLDLRQSKSKEALLSEQLDRLQKDLESTERQKELLSSTIKQQKQQFENCMDDLQGNELRLREHIHALKQAEEDVKNMASIIEKLKTQNKQKEKLIWEREMERNDSDMQLQETLLELKRVQDVKKILSDDLAHLKERLSAVEDRSQYTDEINRLKEELNCSLKAETNLKKEFATLKYKLETSTNDSEAKISDLLKQLDHYTKVVEMLNNEKDAISLAEKELYQKYEALNTECESLKGKIVSLTKIKQELESDLNQKTDALQISNAALSSSTQKNKEITEKIKYLEETLQLQMEQNSRNGELVKTLQASCNGYKDKFDDEKQKNIDLYEENQTLQKLNTDLQLQLKNLHERLSDTTEKNAWLSKIHELENMVSLETDLKYEEMKKNKSLERAVEELQTKNSQQTDVIELANKNRSEFEEATLKYEAQISDLEKYISQQELEMKKSIRDNSSYRDKVQEMAQEIEFWKSRYESTMIGSKNIDSNNAQSKIFS
B2: C-terminally TAP-tagged full-length Myo1 (natural protein, S. cerevisiae, UniProt P08964 1-1928, looked up)
chain: MTGGQSCSSNMIVWIPDEKEVFVKGELMSTDINKNKFTGQEEQIGIVHPLDSTEVSNLVQVRISDVFPVNPSTFDKVENMSELTHLNEPSVLYNLEKRYDCDLIYTYSGLFLVAINPYHNLNLYSEDHINLYHNKHNRLSKSRLDENSHEKLPPHIFAIAEEAYENLLSEGKDQSILVTGESGAGKTENTKKILQYLASITSGSPSNIAPVSGSSIVESFEMKILQSNPILESFGNAQTVRNNNSSRFGKFIKIEFNEHGMINGAHIEWYLLEKSRIVHQNSKERNYHIFYQLLSGLDDSELKNLRLKSRNVKDYKILSNSNQDIIPGINDVENFKELLSALNIIGFSKDQIRWIFQVVAIILLIGNIEFVSDRAEQASFKNDVSAICSNLGVDEKDFQTAILRPRSKAGKEWVSQSKNSQQAKFILNALSRNLYERLFGYIVDMINKNLDHGSATLNYIGLLDIAGFEIFENNSFEQLCINYTNEKLQQFFNNHMFVLEQSEYLKENIQWDYIDYGKDLQLTIDLIESKGPPTGVLPLLDEEAVLPKSTDESFYSKLISTWDQNSSKFKRSRLKNGFILKHYAGDVEYTVEGWLSKNKDPLNDNLLSLLSSSQNDIISKLFQPEGEKSSSAGVEANISNQEVKKSARTSTFKTTSSRHREQQITLLNQLASTHPHFVRCIIPNNVKKVKTFNRRLILDQLRCNGVLEGIRLAREGYPNRIAFQEFFQRYRILYPENSTTTTFSSKLKASTKQNCEFLLTSLQLDTKVYKIGNTKLFFKAGVLADLEKQKDVKLNNIMIKLTATIRGYTVRKEITYHLQKLKKTRVIGNTFRLYNRLVKEDPWFNLFIRIKPLLTSSNDMTRTKKFNEQINKLKNDLQEMESKKKFLEEKNQKTVNELENTQDLLNQEKENLRKNESLLNRVKTSSETLQKQFDDLVSEKDEISREKLEVAQNLEEAHQKIQGLQETIREREATLEKLHSKNNELIKQISDLNCDISKEQSSQSLIKESKLKLENEIKRLKDVINSKEEEIKSFNDKLSSSEEDLDIKLVTLEKNCNIAMSRLQSLVTENSDLRSKNENFKKEKAALNNQLKNKESELLKMKEKIDNHKKELATFSKQRDDAVSEHGKITAELKETRIQLTEYKSNYQKIKEEYSNFQRETKEQEQKKRNSLVESLNDSKIKELEARLSQEISLNQYLNKRISGNSVETNISSTRRSTSYSDDPLDKEDIIKKYYDLQLAFTEITRNLENEIEEKKNLISRLRFTETRLASSSFEDQKIKAQMKKLKKLIQDMDPSIPLDSILNEPLDNCPDKESDINKLMLEVDYLKRQLDIETRAHYDAENAISALHSKFRKIQGESSLSSSDIYKLKFEASEERVKSLEDKLKTMPLRDRTNLPVGDIIKNRDSISKYEEEIRYYKLENYKLQEILNESNGKLSQLTLDLRQSKSKEALLSEQLDRLQKDLESTERQKELLSSTIKQQKQQFENCMDDLQGNELRLREHIHALKQAEEDVKNMASIIEKLKTQNKQKEKLIWEREMERNDSDMQLQETLLELKRVQDVKKILSDDLAHLKERLSAVEDRSQYTDEINRLKEELNCSLKAETNLKKEFATLKYKLETSTNDSEAKISDLLKQLDHYTKVVEMLNNEKDAISLAEKELYQKYEALNTECESLKGKIVSLTKIKQELESDLNQKTDALQISNAALSSSTQKNKEITEKIKYLEETLQLQMEQNSRNGELVKTLQASCNGYKDKFDDEKQKNIDLYEENQTLQKLNTDLQLQLKNLHERLSDTTEKNAWLSKIHELENMVSLETDLKYEEMKKNKSLERAVEELQTKNSQQTDVIELANKNRSEFEEATLKYEAQISDLEKYISQQELEMKKSIRDNSSYRDKVQEMAQEIEFWKSRYESTMIGSKNIDSNNAQSKIFS
B3: MBP-Myo1-tail-TD2Δ (domain or fragment, S. cerevisiae, UniProt P08964 856-1928, looked up)
chain: SSNDMTRTKKFNEQINKLKNDLQEMESKKKFLEEKNQKTVNELENTQDLLNQEKENLRKNESLLNRVKTSSETLQKQFDDLVSEKDEISREKLEVAQNLEEAHQKIQGLQETIREREATLEKLHSKNNELIKQISDLNCDISKEQSSQSLIKESKLKLENEIKRLKDVINSKEEEIKSFNDKLSSSEEDLDIKLVTLEKNCNIAMSRLQSLVTENSDLRSKNENFKKEKAALNNQLKNKESELLKMKEKIDNHKKELATFSKQRDDAVSEHGKITAELKETRIQLTEYKSNYQKIKEEYSNFQRETKEQEQKKRNSLVESLNDSKIKELEARLSQEISLNQYLNKRISGNSVETNISSTRRSTSYSDDVGDIIKNRDSISKYEEEIRYYKLENYKLQEILNESNGKLSQLTLDLRQSKSKEALLSEQLDRLQKDLESTERQKELLSSTIKQQKQQFENCMDDLQGNELRLREHIHALKQAEEDVKNMASIIEKLKTQNKQKEKLIWEREMERNDSDMQLQETLLELKRVQDVKKILSDDLAHLKERLSAVEDRSQYTDEINRLKEELNCSLKAETNLKKEFATLKYKLETSTNDSEAKISDLLKQLDHYTKVVEMLNNEKDAISLAEKELYQKYEALNTECESLKGKIVSLTKIKQELESDLNQKTDALQISNAALSSSTQKNKEITEKIKYLEETLQLQMEQNSRNGELVKTLQASCNGYKDKFDDEKQKNIDLYEENQTLQKLNTDLQLQLKNLHERLSDTTEKNAWLSKIHELENMVSLETDLKYEEMKKNKSLERAVEELQTKNSQQTDVIELANKNRSEFEEATLKYEAQISDLEKYISQQELEMKKSIRDNSSYRDKVQEMAQEIEFWKSRYESTMIGSKNIDSNNAQSKIFS

Molecular target: the molecule itself
Assay: rotary-shadowing EM

Protein	stoichiometry N
B1	2
B2	2
B3	2
